The values below come from patent US20170254807.

The nature of data set [1]: bead aggregation assay, fluorescence microscopy.
The nature of data set [2]: bead aggregation assay, flow cytometry, experiment 1, before the 90 min incubation.

B1: Fc-D1/D2 (mBetacam D1-D2 domain, aa 33-239, fused to human IgG1 Fc; pFUSE-Fc-D1/D2) (protein)
chain: LKVTVPSYTVHGIRGQALYLPVHYGFHTPASDIQIIWLFERSHTMPKYLLGSVNKSVVPDLEYQHKFTMMPPNASLLINPLQFTDEGNYIVKVNIQGNGTLSASQKIQVTVDDPVMKPMVQFHPASGAVEYVGNITLTCQVEGGTRLVYQWRKSGKPISINSSHSFSPQNNTLWIVPVTKEDIGNYTCLVSNPVSEMESDIIMPTIY
Regarding B1, in data set [1], the aggregate size entry was “Aggregates of >100 beads were observed”.

B2: Fc-D3 (mBetacam D3 domain, aa 240-335, fused to human IgG1 Fc; pFUSE-Fc-D3) (protein)
chain: YGPYGLQVNSDKGLKVGEVFTVDLGEAVLFDCSADSYPPNTYSWIQRSDNTTHVIKHGPHLEVASEKVAQKTADYVCCAYNNITGRRDETRFTVII
Take B2: the “P3 (aggregates) prior to incubation” value in data set [2] is recorded as “P3 prior to incubation is 40.8%”.
